In publication PMC9424243, “Structure of a nucleosome-bound MuvB transcription factor complex reveals DNA remodelling” (Nature Communications, 2022):

T1: B-MYB^FL(1–700) (human, UniProt P10244 1-700)
T1 construct: B-MYB, human, residues 1-700 (B-MYB^FL), codon optimised CDS; source: Hi-5 insect cells, expressed separately, purified separately as per the MuvB protocol
T1 sequence (looked up): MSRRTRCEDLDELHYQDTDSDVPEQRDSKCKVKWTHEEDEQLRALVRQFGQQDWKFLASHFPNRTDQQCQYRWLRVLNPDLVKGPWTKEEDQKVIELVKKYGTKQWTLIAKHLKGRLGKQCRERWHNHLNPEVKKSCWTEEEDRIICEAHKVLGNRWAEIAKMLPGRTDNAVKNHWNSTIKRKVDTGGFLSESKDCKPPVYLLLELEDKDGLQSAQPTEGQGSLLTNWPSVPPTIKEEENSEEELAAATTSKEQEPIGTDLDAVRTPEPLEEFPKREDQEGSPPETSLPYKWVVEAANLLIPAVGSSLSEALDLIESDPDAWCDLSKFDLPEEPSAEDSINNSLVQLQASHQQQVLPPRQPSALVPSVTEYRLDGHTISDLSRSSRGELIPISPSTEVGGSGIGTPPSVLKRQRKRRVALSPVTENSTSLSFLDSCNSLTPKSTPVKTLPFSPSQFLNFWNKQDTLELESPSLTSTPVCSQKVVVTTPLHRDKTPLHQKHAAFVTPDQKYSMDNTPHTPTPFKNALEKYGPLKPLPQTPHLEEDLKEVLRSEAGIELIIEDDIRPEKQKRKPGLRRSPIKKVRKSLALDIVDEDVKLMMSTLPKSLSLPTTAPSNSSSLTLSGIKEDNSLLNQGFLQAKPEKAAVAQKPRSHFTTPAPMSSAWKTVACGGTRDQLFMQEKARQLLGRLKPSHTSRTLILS

B1: LIN37^FL(1–246) (natural protein, human, UniProt Q96GY3 1-246, looked up)
chain: MFPVKVKVEKSELEMAKARNQLDAVLQCLLEKSHMDRERLDEEAGKTPSDTHNKDCSIAATGKRPSARFPHQRRKKRREMDDGLAEGGPQRSNTYVIKLFDRSVDLAQFSENTPLYPICRAWMRNSPSVRERECSPSSPLPPLPEDEEGSEVTNSKSRDVYKLPPPTPPGPPGDACRSRIPSPLQPEMQGTPDDEPSEPEPSPSTLIYRNMQRWKRIRQRWKEASHRNQLRYSESMKILREMYERQ
notes: LIN37, human, residues 1-246 (LIN37^FL), codon optimised CDS; Carries the StrepII x2 tag by which the MuvB complexes were purified; the tag was removed with 3C protease before the final SEC; also called FL-LIN37; source: Hi-5 insect cells co-infected with MuvB baculoviruses; purified as part of the complex (Strep-Tactin, 3C protease, SEC)
B2: LIN54^short(515–749) (domain or fragment, human, UniProt Q6MZP7 515-749, looked up)
chain: SESASRPRKPCNCTKSLCLKLYCDCFANGEFCNNCNCTNCYNNLEHENERQKAIKACLDRNPEAFKPKIGKGKEGESDRRHSKGCNCKRSGCLKNYCECYEAKIMCSSICKCIGCKNFEESPERKTLMHLADAAEVRVQQQTAAKTKLSSQISDLLTRPTPALNSGGGKLPFTFVTKEVAEATCNCLLAQAEQADKKGKSKAAAERMILEEFGRCLMSVINSAGKAKSDPCAMNC
notes: LIN54, human, residues 515-749 (non-conserved N-terminus removed), codon optimised CDS; also called short version of LIN54; source: Hi-5 insect cells co-infected with MuvB baculoviruses; purified as part of the complex (Strep-Tactin, 3C protease, SEC)
B3: LIN9^FL(1–542) (natural protein, human, UniProt Q5TKA1 1-542, looked up)
chain: MAELDQLPDESSSAKALVSLKEGSLSNTWNEKYSSLQKTPVWKGRNTSSAVEMPFRNSKRSRLFSDEDDRQINTRSPKRNQRVAMVPQKFTATMSTPDKKASQKIGFRLRNLLKLPKAHKWCIYEWFYSNIDKPLFEGDNDFCVCLKESFPNLKTRKLTRVEWGKIRRLMGKPRRCSSAFFEEERSALKQKRQKIRLLQQRKVADVSQFKDLPDEIPLPLVIGTKVTARLRGVHDGLFTGQIDAVDTLNATYRVTFDRTGLGTHTIPDYEVLSNEPHETMPIAAFGQKQRPSRFFMTPPRLHYTPPLQSPIIDNDPLLGQSPWRSKISGSDTETLGGFPVEFLIQVTRLSKILMIKKEHIKKLREMNTEAEKLKSYSMPISIEFQRRYATIVLELEQLNKDLNKVLHKVQQYCYELAPDQGLQPADQPTDMRRRCEEEAQEIVRHANSSTGQPCVENENLTDLISRLTAILLQIKCLAEGGDLNSFEFKSLTDSLNDIKSTIDASNISCFQNNVEIHVAHIQSGLSQMGNLHAFAANNTNRD
notes: LIN9, human, residues 1-542 (LIN9^FL), codon optimised CDS; Subunit of the co-expressed MuvB, MuvB^core and MMB^core complexes; only DIRP and tudor domains are built in PDB 7R1D; source: Hi-5 insect cells co-infected with MuvB baculoviruses; purified as part of the complex (Strep-Tactin, 3C protease, SEC)
B4: LIN52^FL(1–116) (natural protein, human, UniProt Q52LA3 1-112, looked up)
chain: MASPTDGTDLEASLLSFEKLDRASPDLWPEQLPGVAEFAASFKSPITSSPPKWMAEIERDDIDMLKELGSLTTANLMEKVRGLQNLAYQLGLDESREMTRGKFLNILEKPKK
notes: LIN52, human, residues 1-116 (LIN52^FL), codon optimised CDS; source: Hi-5 insect cells co-infected with MuvB baculoviruses; purified as part of the complex (Strep-Tactin, 3C protease, SEC)

Assays:
[1] = target: B3; experiment: SEC; subunits co-expressed in Hi-5 cells; complex held on Strep-Tactin by StrepII x2 on LIN37, washed with 1000 mM NaCl, tag cut with 3C, then SEC (S200 or Superose 6) in 20 mM HEPES pH 8, 150 mM NaCl, 0.5 mM TCEP; details: partners not purified
[2] = target: B3; experiment: cross-linking; DSSO cross-linking mass spectrometry of 28 μM purified MuvB complex, 10 min on ice, monomeric SEC fraction analysed; details: both partners purified
[3] = target: T2, RbBP4^FL(1–425) (human, UniProt Q09028 1-425); experiment: as above; details: both partners purified
T2 construct: Subunit of the co-expressed MuvB complexes in which the StrepII x2 tag stands on LIN37; source: Hi-5 insect cells co-infected with MuvB baculoviruses; purified as part of the complex (Strep-Tactin, 3C protease, SEC)

[4] = target: B1; experiment: mass photometry; purified co-expressed complex diluted from 500 nM just before measurement; 20 mM HEPES pH 8, 150 mM NaCl, 0.5 mM TCEP; details: both partners purified
[5] = target: T1, B-MYB^FL(1–700); experiment: cryo-EM structure; MMB^core:NCP167 mixed at 2.5:1, GraFix (glutaraldehyde, sucrose gradient); nucleosome at 3.3 Å, MuvB^HEAD 7.5 Å and MuvB^TAIL 8.7 Å, known structures fitted; details: both partners purified

T2 sequence (Q09028 whole entry): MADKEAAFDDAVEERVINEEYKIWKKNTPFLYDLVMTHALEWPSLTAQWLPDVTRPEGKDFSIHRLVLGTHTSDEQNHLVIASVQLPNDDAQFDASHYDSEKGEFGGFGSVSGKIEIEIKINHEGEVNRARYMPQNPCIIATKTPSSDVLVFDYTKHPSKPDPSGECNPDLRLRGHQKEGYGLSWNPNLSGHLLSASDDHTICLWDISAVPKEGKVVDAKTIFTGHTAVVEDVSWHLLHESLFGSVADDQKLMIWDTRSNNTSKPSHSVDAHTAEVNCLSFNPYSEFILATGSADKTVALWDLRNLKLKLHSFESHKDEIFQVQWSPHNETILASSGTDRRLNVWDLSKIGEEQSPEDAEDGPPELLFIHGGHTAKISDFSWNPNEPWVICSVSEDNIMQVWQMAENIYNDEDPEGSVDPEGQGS

Binder | binding result [1] | binding result [2] | binding result [3] | stoichiometry N [4] | binding result [5]
B1 | binds | – | – | – | –
B2 | – | binds | binds | 1 | –
B3 | – | – | – | 1 | binds
B4 | – | – | – | 1 | –
